The values below come from PMC8878202, “Interdisciplinary Study of the Effects of Dipeptidyl-Peptidase III Cancer Mutations on the KEAP1-NRF2 Signaling Pathway” (International Journal of Molecular Sciences, 2022).

This experiment deals with T1, Kelch domain of KEAP1 protein (UniProt Q14145 321-609, fluorescently labeled with RED-MALEIMIDE (Cysteine reactive) fluorescent dye).
T1 construct: Kelch domain of KEAP1 (Kelch-like ECH associated protein 1); plasmid pET15b with Kelch insert, gift of Mark Hannink; also called Kelch-like ECH associated protein 1 (Kelch domain); source: E. coli BL21-(DE3)-RIL+, purified (Ni-NTA agarose)
Nature of the experiment: MST; Kelch domain labeled with RED-MALEIMIDE, 50 nM; DPP III or variant added; binding-induced fluorescence change on Monolith NT.115; 25 °C; 50 mM Tris, 100 mM NaCl, pH 8.2, 0.05% Tween; triplicate. The conditions noted are these: both partners purified.

T1 sequence (Q14145 321-609): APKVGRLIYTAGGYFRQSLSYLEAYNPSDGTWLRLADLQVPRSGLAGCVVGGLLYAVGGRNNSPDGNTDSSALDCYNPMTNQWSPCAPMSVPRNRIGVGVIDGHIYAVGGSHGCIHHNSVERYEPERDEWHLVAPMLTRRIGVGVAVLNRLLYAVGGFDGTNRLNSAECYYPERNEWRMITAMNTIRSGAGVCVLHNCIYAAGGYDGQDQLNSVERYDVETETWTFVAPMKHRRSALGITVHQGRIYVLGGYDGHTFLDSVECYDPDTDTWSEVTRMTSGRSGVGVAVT

B1: Dipeptidyl peptidase III, wild type (enzyme, human, UniProt Q9NY33 1-737, looked up)
chain: MADTQYILPNDIGVSSLDCREAFRLLSPTERLYAYHLSRAAWYGGLAVLLQTSPEAPYIYALLSRLFRAQDPDQLRQHALAEGLTEEEYQAFLVYAAGVYSNMGNYKSFGDTKFVPNLPKEKLERVILGSEAAQQHPEEVRGLWQTCGELMFSLEPRLRHLGLGKEGITTYFSGNCTMEDAKLAQDFLDSQNLSAYNTRLFKEVDGEGKPYYEVRLASVLGSEPSLDSEVTSKLKSYEFRGSPFQVTRGDYAPILQKVVEQLEKAKAYAANSHQGQMLAQYIESFTQGSIEAHKRGSRFWIQDKGPIVESYIGFIESYRDPFGSRGEFEGFVAVVNKAMSAKFERLVASAEQLLKELPWPPTFEKDKFLTPDFTSLDVLTFAGSGIPAGINIPNYDDLRQTEGFKNVSLGNVLAVAYATQREKLTFLEEDDKDLYILWKGPSFDVQVGLHELLGHGSGKLFVQDEKGAFNFDQETVINPETGEQIQSWYRSGETWDSKFSTIASSYEECRAESVGLYLCLHPQVLEIFGFEGADAEDVIYVNWLNMVRAGLLALEFYTPEAFNWRQAHMQARFVILRVLLEAGEGLVTITPTTGSDGRPDARVRLDRSKIRSVGKPALERFLRRLQVLKSTGDVAGGRALYEGYATVTDAPPECFLTLRDTVLLRKESRKLIVQPNTRLEGSDVQLLEYEASAAGLIRSFSERFPEDGPELEEILTQLATADARFWKGPSEAPSGQA
notes: Dipeptidyl peptidase III (DPP III, EC 3.4.14.4), human, wild type, cloned into pLATE31; also called DPP III; WT DPP III; source: E. coli BL21-(DE3)-RIL+, purified (Ni-NTA agarose)
B1: the “Kd(WT)/Kd(mut)” value was 1.

B2: DPP III R510W variant (enzyme, human, UniProt Q9NY33 1-737, looked up)
chain: MADTQYILPNDIGVSSLDCREAFRLLSPTERLYAYHLSRAAWYGGLAVLLQTSPEAPYIYALLSRLFRAQDPDQLRQHALAEGLTEEEYQAFLVYAAGVYSNMGNYKSFGDTKFVPNLPKEKLERVILGSEAAQQHPEEVRGLWQTCGELMFSLEPRLRHLGLGKEGITTYFSGNCTMEDAKLAQDFLDSQNLSAYNTRLFKEVDGEGKPYYEVRLASVLGSEPSLDSEVTSKLKSYEFRGSPFQVTRGDYAPILQKVVEQLEKAKAYAANSHQGQMLAQYIESFTQGSIEAHKRGSRFWIQDKGPIVESYIGFIESYRDPFGSRGEFEGFVAVVNKAMSAKFERLVASAEQLLKELPWPPTFEKDKFLTPDFTSLDVLTFAGSGIPAGINIPNYDDLRQTEGFKNVSLGNVLAVAYATQREKLTFLEEDDKDLYILWKGPSFDVQVGLHELLGHGSGKLFVQDEKGAFNFDQETVINPETGEQIQSWYRSGETWDSKFSTIASSYEECWAESVGLYLCLHPQVLEIFGFEGADAEDVIYVNWLNMVRAGLLALEFYTPEAFNWRQAHMQARFVILRVLLEAGEGLVTITPTTGSDGRPDARVRLDRSKIRSVGKPALERFLRRLQVLKSTGDVAGGRALYEGYATVTDAPPECFLTLRDTVLLRKESRKLIVQPNTRLEGSDVQLLEYEASAAGLIRSFSERFPEDGPELEEILTQLATADARFWKGPSEAPSGQA
notes: source: E. coli BL21-(DE3)-RIL+, purified (Ni-NTA agarose)
Consider B2, for which the “Kd(WT)/Kd(mut)” value was found to be 0.3.

B3: DPP III P479S variant (enzyme, human, UniProt Q9NY33 1-737, looked up)
chain: MADTQYILPNDIGVSSLDCREAFRLLSPTERLYAYHLSRAAWYGGLAVLLQTSPEAPYIYALLSRLFRAQDPDQLRQHALAEGLTEEEYQAFLVYAAGVYSNMGNYKSFGDTKFVPNLPKEKLERVILGSEAAQQHPEEVRGLWQTCGELMFSLEPRLRHLGLGKEGITTYFSGNCTMEDAKLAQDFLDSQNLSAYNTRLFKEVDGEGKPYYEVRLASVLGSEPSLDSEVTSKLKSYEFRGSPFQVTRGDYAPILQKVVEQLEKAKAYAANSHQGQMLAQYIESFTQGSIEAHKRGSRFWIQDKGPIVESYIGFIESYRDPFGSRGEFEGFVAVVNKAMSAKFERLVASAEQLLKELPWPPTFEKDKFLTPDFTSLDVLTFAGSGIPAGINIPNYDDLRQTEGFKNVSLGNVLAVAYATQREKLTFLEEDDKDLYILWKGPSFDVQVGLHELLGHGSGKLFVQDEKGAFNFDQETVINSETGEQIQSWYRSGETWDSKFSTIASSYEECRAESVGLYLCLHPQVLEIFGFEGADAEDVIYVNWLNMVRAGLLALEFYTPEAFNWRQAHMQARFVILRVLLEAGEGLVTITPTTGSDGRPDARVRLDRSKIRSVGKPALERFLRRLQVLKSTGDVAGGRALYEGYATVTDAPPECFLTLRDTVLLRKESRKLIVQPNTRLEGSDVQLLEYEASAAGLIRSFSERFPEDGPELEEILTQLATADARFWKGPSEAPSGQA
notes: as for B2
B3: the “Kd(WT)/Kd(mut)” value was 18.4.

B4: DPP III E480Q variant (enzyme, human, UniProt Q9NY33 1-737, looked up)
chain: MADTQYILPNDIGVSSLDCREAFRLLSPTERLYAYHLSRAAWYGGLAVLLQTSPEAPYIYALLSRLFRAQDPDQLRQHALAEGLTEEEYQAFLVYAAGVYSNMGNYKSFGDTKFVPNLPKEKLERVILGSEAAQQHPEEVRGLWQTCGELMFSLEPRLRHLGLGKEGITTYFSGNCTMEDAKLAQDFLDSQNLSAYNTRLFKEVDGEGKPYYEVRLASVLGSEPSLDSEVTSKLKSYEFRGSPFQVTRGDYAPILQKVVEQLEKAKAYAANSHQGQMLAQYIESFTQGSIEAHKRGSRFWIQDKGPIVESYIGFIESYRDPFGSRGEFEGFVAVVNKAMSAKFERLVASAEQLLKELPWPPTFEKDKFLTPDFTSLDVLTFAGSGIPAGINIPNYDDLRQTEGFKNVSLGNVLAVAYATQREKLTFLEEDDKDLYILWKGPSFDVQVGLHELLGHGSGKLFVQDEKGAFNFDQETVINPQTGEQIQSWYRSGETWDSKFSTIASSYEECRAESVGLYLCLHPQVLEIFGFEGADAEDVIYVNWLNMVRAGLLALEFYTPEAFNWRQAHMQARFVILRVLLEAGEGLVTITPTTGSDGRPDARVRLDRSKIRSVGKPALERFLRRLQVLKSTGDVAGGRALYEGYATVTDAPPECFLTLRDTVLLRKESRKLIVQPNTRLEGSDVQLLEYEASAAGLIRSFSERFPEDGPELEEILTQLATADARFWKGPSEAPSGQA
notes: as for B2
With B4, the “Kd(WT)/Kd(mut)” value is 0.1.

B5: DPP III Q484H variant (enzyme, human, UniProt Q9NY33 1-737, looked up)
chain: MADTQYILPNDIGVSSLDCREAFRLLSPTERLYAYHLSRAAWYGGLAVLLQTSPEAPYIYALLSRLFRAQDPDQLRQHALAEGLTEEEYQAFLVYAAGVYSNMGNYKSFGDTKFVPNLPKEKLERVILGSEAAQQHPEEVRGLWQTCGELMFSLEPRLRHLGLGKEGITTYFSGNCTMEDAKLAQDFLDSQNLSAYNTRLFKEVDGEGKPYYEVRLASVLGSEPSLDSEVTSKLKSYEFRGSPFQVTRGDYAPILQKVVEQLEKAKAYAANSHQGQMLAQYIESFTQGSIEAHKRGSRFWIQDKGPIVESYIGFIESYRDPFGSRGEFEGFVAVVNKAMSAKFERLVASAEQLLKELPWPPTFEKDKFLTPDFTSLDVLTFAGSGIPAGINIPNYDDLRQTEGFKNVSLGNVLAVAYATQREKLTFLEEDDKDLYILWKGPSFDVQVGLHELLGHGSGKLFVQDEKGAFNFDQETVINPETGEHIQSWYRSGETWDSKFSTIASSYEECRAESVGLYLCLHPQVLEIFGFEGADAEDVIYVNWLNMVRAGLLALEFYTPEAFNWRQAHMQARFVILRVLLEAGEGLVTITPTTGSDGRPDARVRLDRSKIRSVGKPALERFLRRLQVLKSTGDVAGGRALYEGYATVTDAPPECFLTLRDTVLLRKESRKLIVQPNTRLEGSDVQLLEYEASAAGLIRSFSERFPEDGPELEEILTQLATADARFWKGPSEAPSGQA
notes: as for B2
In the case of B5, the “Kd(WT)/Kd(mut)” value came to 2.1.

B6: DPP III G482C variant (enzyme, human, UniProt Q9NY33 1-737, looked up)
chain: MADTQYILPNDIGVSSLDCREAFRLLSPTERLYAYHLSRAAWYGGLAVLLQTSPEAPYIYALLSRLFRAQDPDQLRQHALAEGLTEEEYQAFLVYAAGVYSNMGNYKSFGDTKFVPNLPKEKLERVILGSEAAQQHPEEVRGLWQTCGELMFSLEPRLRHLGLGKEGITTYFSGNCTMEDAKLAQDFLDSQNLSAYNTRLFKEVDGEGKPYYEVRLASVLGSEPSLDSEVTSKLKSYEFRGSPFQVTRGDYAPILQKVVEQLEKAKAYAANSHQGQMLAQYIESFTQGSIEAHKRGSRFWIQDKGPIVESYIGFIESYRDPFGSRGEFEGFVAVVNKAMSAKFERLVASAEQLLKELPWPPTFEKDKFLTPDFTSLDVLTFAGSGIPAGINIPNYDDLRQTEGFKNVSLGNVLAVAYATQREKLTFLEEDDKDLYILWKGPSFDVQVGLHELLGHGSGKLFVQDEKGAFNFDQETVINPETCEQIQSWYRSGETWDSKFSTIASSYEECRAESVGLYLCLHPQVLEIFGFEGADAEDVIYVNWLNMVRAGLLALEFYTPEAFNWRQAHMQARFVILRVLLEAGEGLVTITPTTGSDGRPDARVRLDRSKIRSVGKPALERFLRRLQVLKSTGDVAGGRALYEGYATVTDAPPECFLTLRDTVLLRKESRKLIVQPNTRLEGSDVQLLEYEASAAGLIRSFSERFPEDGPELEEILTQLATADARFWKGPSEAPSGQA
notes: as for B2
Consider B6, for which the “Kd(WT)/Kd(mut)” value is 0.8.

B7: DPP III E451K variant (enzyme, human, UniProt Q9NY33 1-737, looked up)
chain: MADTQYILPNDIGVSSLDCREAFRLLSPTERLYAYHLSRAAWYGGLAVLLQTSPEAPYIYALLSRLFRAQDPDQLRQHALAEGLTEEEYQAFLVYAAGVYSNMGNYKSFGDTKFVPNLPKEKLERVILGSEAAQQHPEEVRGLWQTCGELMFSLEPRLRHLGLGKEGITTYFSGNCTMEDAKLAQDFLDSQNLSAYNTRLFKEVDGEGKPYYEVRLASVLGSEPSLDSEVTSKLKSYEFRGSPFQVTRGDYAPILQKVVEQLEKAKAYAANSHQGQMLAQYIESFTQGSIEAHKRGSRFWIQDKGPIVESYIGFIESYRDPFGSRGEFEGFVAVVNKAMSAKFERLVASAEQLLKELPWPPTFEKDKFLTPDFTSLDVLTFAGSGIPAGINIPNYDDLRQTEGFKNVSLGNVLAVAYATQREKLTFLEEDDKDLYILWKGPSFDVQVGLHKLLGHGSGKLFVQDEKGAFNFDQETVINPETGEQIQSWYRSGETWDSKFSTIASSYEECRAESVGLYLCLHPQVLEIFGFEGADAEDVIYVNWLNMVRAGLLALEFYTPEAFNWRQAHMQARFVILRVLLEAGEGLVTITPTTGSDGRPDARVRLDRSKIRSVGKPALERFLRRLQVLKSTGDVAGGRALYEGYATVTDAPPECFLTLRDTVLLRKESRKLIVQPNTRLEGSDVQLLEYEASAAGLIRSFSERFPEDGPELEEILTQLATADARFWKGPSEAPSGQA
notes: as for B2
As for B7, the “Kd(WT)/Kd(mut)” value came to 2.1.
